Test results: patent KR20150077749A (dated 2015)

How the values were obtained:
[1] = target: T1, HRS (Histidyl-tRNA synthetase), purified recombinant antigen (UniProt P12081 1-509, limits assumed); experiment: Luminex multiplex bead assay, antigen coupled to beads, anti-HA-biotin / SA-PE detection
T1 construct: also called 히스티딜-tRNA 합성효소
T1 sequence (looked up): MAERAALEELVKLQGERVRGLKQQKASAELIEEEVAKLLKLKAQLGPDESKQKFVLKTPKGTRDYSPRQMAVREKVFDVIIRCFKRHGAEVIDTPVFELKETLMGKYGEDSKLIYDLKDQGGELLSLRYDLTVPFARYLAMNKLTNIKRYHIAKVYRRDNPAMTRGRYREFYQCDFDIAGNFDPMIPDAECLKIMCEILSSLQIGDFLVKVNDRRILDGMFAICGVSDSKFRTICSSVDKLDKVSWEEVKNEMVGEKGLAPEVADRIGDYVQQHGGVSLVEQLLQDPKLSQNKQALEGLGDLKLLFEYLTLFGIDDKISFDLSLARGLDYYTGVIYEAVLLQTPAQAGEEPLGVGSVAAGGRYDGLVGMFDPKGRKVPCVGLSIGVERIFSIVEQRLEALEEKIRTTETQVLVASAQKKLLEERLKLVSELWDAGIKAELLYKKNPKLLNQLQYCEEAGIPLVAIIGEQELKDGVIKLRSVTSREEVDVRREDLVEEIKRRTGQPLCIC

[2] = target: T2, KRS (Lysyl-tRNA synthetase), purified recombinant antigen (UniProt Q15046 1-597, limits assumed); experiment: as above
T2 construct: also called 리실-tRNA 합성효소
T2 sequence (Q15046 whole entry): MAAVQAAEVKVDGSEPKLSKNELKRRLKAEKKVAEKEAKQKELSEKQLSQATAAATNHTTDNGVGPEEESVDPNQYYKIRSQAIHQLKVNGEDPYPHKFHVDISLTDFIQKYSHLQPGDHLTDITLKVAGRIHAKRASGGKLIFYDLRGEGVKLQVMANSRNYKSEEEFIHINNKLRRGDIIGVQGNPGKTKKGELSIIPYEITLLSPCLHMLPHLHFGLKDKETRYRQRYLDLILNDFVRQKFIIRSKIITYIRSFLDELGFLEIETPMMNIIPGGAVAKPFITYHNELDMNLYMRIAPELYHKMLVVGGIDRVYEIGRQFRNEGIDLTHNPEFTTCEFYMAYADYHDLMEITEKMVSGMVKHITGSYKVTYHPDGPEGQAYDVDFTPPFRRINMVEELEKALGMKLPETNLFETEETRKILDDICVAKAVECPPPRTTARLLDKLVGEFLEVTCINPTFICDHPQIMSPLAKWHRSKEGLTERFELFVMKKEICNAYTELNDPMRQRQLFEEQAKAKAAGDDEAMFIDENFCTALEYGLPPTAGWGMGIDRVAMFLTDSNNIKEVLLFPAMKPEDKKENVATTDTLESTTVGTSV

[3] = target: T3, NRS (Asparaginyl-tRNA synthetase), purified recombinant antigen (UniProt O43776 1-548, limits assumed); experiment: as above
T3 construct: also called 아스파라기닐딜-tRNA 합성효소
T3 sequence (looked up): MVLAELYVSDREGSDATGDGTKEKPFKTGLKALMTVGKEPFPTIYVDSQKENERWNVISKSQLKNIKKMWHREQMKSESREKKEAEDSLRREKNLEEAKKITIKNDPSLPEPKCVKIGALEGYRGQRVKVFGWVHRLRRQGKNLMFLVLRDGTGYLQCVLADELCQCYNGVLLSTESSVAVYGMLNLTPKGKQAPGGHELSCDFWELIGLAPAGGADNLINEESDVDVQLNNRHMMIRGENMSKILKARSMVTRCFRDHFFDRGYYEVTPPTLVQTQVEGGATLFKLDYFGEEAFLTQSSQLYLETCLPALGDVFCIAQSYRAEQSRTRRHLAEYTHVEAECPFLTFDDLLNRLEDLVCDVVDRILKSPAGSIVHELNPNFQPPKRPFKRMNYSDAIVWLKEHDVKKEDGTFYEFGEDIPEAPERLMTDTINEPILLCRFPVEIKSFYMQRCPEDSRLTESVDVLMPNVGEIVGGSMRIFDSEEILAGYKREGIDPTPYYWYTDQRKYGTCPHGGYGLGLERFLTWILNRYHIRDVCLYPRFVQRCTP

[4] = target: T4, WRS (Tryptophanyl-tRNA synthetase), purified recombinant antigen (UniProt P23381 1-471, limits assumed); experiment: as above
T4 construct: also called 트립토파닐-tRNA 합성효소
T4 sequence (looked up): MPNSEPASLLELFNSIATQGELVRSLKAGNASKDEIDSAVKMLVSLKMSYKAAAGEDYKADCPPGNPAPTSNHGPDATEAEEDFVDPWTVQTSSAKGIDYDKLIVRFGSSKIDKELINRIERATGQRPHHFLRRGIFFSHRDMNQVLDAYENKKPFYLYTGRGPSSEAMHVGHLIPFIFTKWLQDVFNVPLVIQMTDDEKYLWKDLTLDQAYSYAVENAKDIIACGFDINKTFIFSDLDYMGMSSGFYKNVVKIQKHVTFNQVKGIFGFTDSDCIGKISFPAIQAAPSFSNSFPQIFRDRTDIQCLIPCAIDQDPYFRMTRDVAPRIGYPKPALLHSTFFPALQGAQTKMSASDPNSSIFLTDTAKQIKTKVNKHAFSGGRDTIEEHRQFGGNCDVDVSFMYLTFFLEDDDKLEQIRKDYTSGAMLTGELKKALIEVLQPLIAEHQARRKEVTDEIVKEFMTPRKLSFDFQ

[5] = target: T5, SRS (Seryl-tRNA synthetase), purified recombinant antigen (UniProt P49591 1-514, limits assumed); experiment: as above
T5 construct: also called 세릴-tRNA 합성효소
T5 sequence (P49591 whole entry): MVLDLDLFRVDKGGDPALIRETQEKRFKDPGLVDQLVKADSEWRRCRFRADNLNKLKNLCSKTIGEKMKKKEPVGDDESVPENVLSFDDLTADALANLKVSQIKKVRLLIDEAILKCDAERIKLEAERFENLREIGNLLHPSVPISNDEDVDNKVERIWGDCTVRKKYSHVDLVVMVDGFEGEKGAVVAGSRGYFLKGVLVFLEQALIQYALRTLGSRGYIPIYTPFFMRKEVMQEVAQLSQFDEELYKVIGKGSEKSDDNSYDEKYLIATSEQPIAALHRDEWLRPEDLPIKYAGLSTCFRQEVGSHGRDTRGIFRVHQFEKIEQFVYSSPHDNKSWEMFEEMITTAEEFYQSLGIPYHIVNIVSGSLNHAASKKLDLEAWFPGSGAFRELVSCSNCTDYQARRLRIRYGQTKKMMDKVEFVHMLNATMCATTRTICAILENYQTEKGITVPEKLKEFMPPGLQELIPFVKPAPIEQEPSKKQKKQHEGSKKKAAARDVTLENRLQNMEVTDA

[6] = target: T6, YRS (Tyrosyl-tRNA synthetase), purified recombinant antigen (UniProt P54577 1-528, limits assumed); experiment: as above
T6 construct: also called 타이로실-tRNA 합성효소
T6 sequence (looked up): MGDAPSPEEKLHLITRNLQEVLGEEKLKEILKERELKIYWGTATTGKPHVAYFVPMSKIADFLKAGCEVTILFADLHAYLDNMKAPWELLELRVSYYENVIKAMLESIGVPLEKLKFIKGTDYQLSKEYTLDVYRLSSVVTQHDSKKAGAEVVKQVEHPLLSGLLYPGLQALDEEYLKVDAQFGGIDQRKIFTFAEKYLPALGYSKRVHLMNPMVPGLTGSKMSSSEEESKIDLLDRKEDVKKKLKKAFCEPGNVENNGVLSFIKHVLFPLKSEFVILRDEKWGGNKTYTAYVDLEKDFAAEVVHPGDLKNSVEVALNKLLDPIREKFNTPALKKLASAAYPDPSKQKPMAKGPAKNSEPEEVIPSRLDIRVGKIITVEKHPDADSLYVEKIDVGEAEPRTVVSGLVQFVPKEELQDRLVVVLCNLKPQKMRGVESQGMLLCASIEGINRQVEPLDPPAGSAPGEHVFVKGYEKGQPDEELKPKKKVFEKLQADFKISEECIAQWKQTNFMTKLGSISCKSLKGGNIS

[7] = target: T7, AIMP1 (Aminoacyl-tRNA-synthetase-interacting multifunctional protein 1), purified recombinant antigen (UniProt Q12904 1-312, limits assumed); experiment: as above
T7 construct: also called AIMP1(p43); p43
T7 sequence (looked up): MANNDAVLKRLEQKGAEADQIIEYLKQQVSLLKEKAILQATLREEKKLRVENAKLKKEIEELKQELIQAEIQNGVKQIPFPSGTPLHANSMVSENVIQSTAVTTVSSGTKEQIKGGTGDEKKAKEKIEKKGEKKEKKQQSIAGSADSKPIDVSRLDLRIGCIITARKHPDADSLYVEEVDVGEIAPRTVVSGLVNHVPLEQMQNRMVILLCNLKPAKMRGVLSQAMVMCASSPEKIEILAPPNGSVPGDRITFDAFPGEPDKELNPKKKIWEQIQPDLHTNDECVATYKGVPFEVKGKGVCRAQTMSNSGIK

[8] = target: T8, GRS expressed natively in human cells (HeLa cell lysate) (human, UniProt P41250 55-739, limits assumed); experiment: western blot
T8 construct: Target of the western blot; also called human 세포에서 원래 발현된 GRS
T8 sequence (looked up): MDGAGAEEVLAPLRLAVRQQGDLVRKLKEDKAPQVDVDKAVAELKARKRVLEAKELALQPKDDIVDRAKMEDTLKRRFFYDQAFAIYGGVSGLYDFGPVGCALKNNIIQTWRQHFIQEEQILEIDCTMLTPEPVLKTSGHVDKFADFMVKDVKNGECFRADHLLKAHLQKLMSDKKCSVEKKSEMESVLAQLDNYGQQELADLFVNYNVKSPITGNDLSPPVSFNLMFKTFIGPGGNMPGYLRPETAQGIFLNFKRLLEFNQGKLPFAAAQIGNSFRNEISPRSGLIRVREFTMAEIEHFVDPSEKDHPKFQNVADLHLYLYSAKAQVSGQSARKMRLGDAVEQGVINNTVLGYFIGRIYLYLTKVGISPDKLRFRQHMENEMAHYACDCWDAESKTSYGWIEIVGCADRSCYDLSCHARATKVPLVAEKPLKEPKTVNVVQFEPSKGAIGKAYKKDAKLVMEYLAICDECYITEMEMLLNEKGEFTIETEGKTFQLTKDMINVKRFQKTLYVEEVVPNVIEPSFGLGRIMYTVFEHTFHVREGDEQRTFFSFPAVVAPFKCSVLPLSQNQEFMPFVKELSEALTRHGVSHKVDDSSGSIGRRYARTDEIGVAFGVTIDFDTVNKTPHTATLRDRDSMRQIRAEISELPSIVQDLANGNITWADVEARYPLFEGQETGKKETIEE

Binder | binding result [1] | binding result [2] | binding result [3] | binding result [4] | binding result [5] | binding result [6] | binding result [7] | binding result [8]
anti-GRS scFv, SEQ ID NO 27 (antibody ii) (scFv, One of the three scFvs selected by phage display, expressed from pComb3X in the E. coli periplasm; His and HA tags were used for purification and detection; also called 본 발명의 항체; 항 GRS scFv 항체) scFv: EVQLLESGGGLVQPGGSLRLSCAASGFTFSGYDMSWVRQAPGKGLEWVSAIYSDSGSTYYADSVKGRFTISRDNSKNTLYLQMNSLRAEDTAVYYCARNTALFDYWGQGTLVTVSSGGGGSGGGGSGGGGSQSVLTQPPSASGTPGQRVTISCSGSSSNIGSNYVTWYQQLPGTAPKLLIYANNHRPSGVPDRFSGSKSGTSASLAISGLRSEDEADYYCGAWDASLSGYVFGGGTKLTVL | no binding | no binding | no binding | no binding | no binding | no binding | no binding | binds
anti-GRS scFv, SEQ ID NO 41 (antibody iii) (scFv, One of the three scFvs selected by phage display, expressed from pComb3X in the E. coli periplasm; His and HA tags were used for purification and detection; also called 본 발명의 항체; 항 GRS scFv 항체) scFv: EVQLLESGGGLVQPGGSLRLSCAASGFTFSNYDMSWVRQAPGKGLEWVSWIYSNGSSTYYADSVKGRFTISRDNSKNTLYLQMNSLRAEDTAVYYCARITCMFDYWGQGTLVTVSSGGGGSGGGGSGGGGSQSVLTQPPSASGTPGQRVTISCSGSSSNIGSNYVTWYQQLPGTAPKLLIYADSHRPSGVPDRFSGSKSGTSASLAISGLRSEDEADYYCGSWDYSLNGYVFGGGTKLTVL | no binding | no binding | no binding | no binding | no binding | no binding | no binding | binds
anti-GRS scFv, SEQ ID NO 13 (antibody i) (scFv, One of the three scFvs selected by phage display (human VH3-23/VL1g framework), expressed from pComb3X in the E. coli periplasm; It was purified on Ni-NTA and detected with anti-HA, so it carries His and HA tags; Every result written here is told alike for all three scFvs; also called 본 발명의 항체; 항 GRS scFv 항체) scFv: EVQLLESGGGLVQPGGSLRLSCAASGFTFSDYDMSWVRQAPGKGLEWVSAISPDDGSKYYADSVKGRFTISRDNSKNTLYLQMNSLRAEDTAVYYCARTTWLFDYWGQGTLVTVSSGGGGSGGGGSGGGGSQSVLTQPPSASGTPGQRVTISCTGSSSNIGNNYVNWYQQLPGTAPKLLIYADSHRPSGVPDRFSGSKSGTSASLAISGLRSEDEADYYCGAWDSSLSGYVFGGGTKLTVL | no binding | no binding | no binding | no binding | no binding | no binding | no binding | 
